Results on one substance are retold here after article PMC13612217.

The assay deals with S-chain of the optimized human DROP-CAR containing dmLD3 (human).

“R-domain of the anti-PSMA DROP-CAR (J591 scFv fused to Bcl-2)”: the percent of anti-PSMA DROP-CAR Jurkat cells still bound to a PC3-PIP monolayer at 1,000 pN (z-Movi acoustic force ramp), with venetoclax, partially detached cells counted as bound was 30%; the percent of anti-PSMA DROP-CAR Jurkat cells still bound to a PC3-PIP monolayer at 1,000 pN (z-Movi acoustic force ramp), with venetoclax, partially detached cells counted as dissociated is < 10%; the percent of anti-PSMA DROP-CAR Jurkat cells still bound to a PC3-PIP monolayer at 1,000 pN (z-Movi acoustic force ramp), without venetoclax, partially detached cells counted as bound was found to be 64%; the percent of anti-PSMA DROP-CAR Jurkat cells still bound to a PC3-PIP monolayer at 1,000 pN (z-Movi acoustic force ramp), without venetoclax, partially detached cells counted as dissociated was 30%.
